For the assay, the system named is immunocomplexes of CCPH variants and anti-Adda mAb. Description: Screening and cross-reactivity studies of anti-IC scFv-AP binders, specificity class. The format is binding.

B1: SA51F6: group-specific anti-immunocomplex antibody (antibody, V domains shown)
VH: EVQLLESGGGLVQPGGSLRLSCAASGFTFSDYWMHWVRQAPGKGLEWVSEIWYSSGYTNYADSVKGRFTISRDNSKNTLYLQMNSLRAEDTAVYYCARDAFPWDVFDYWGQGTLVTVSS
VL: EIVLTQSPGTLSLSPGERATLSCRASQSVSSSYLAWYQQKPGQAPRLLIYGASSRATGVPDRFSGSGSGTDFTLTISRLEPEDFAVYYCQQSSSTPWTFGQGTKVEIKRT
modifications: Clone SA51F6; DOMAIN (31)..(35) CDR1; DOMAIN (50)..(66) CDR2; DOMAIN (99)..(108) CDR3; DOMAIN (24)..(35) CDR1; DOMAIN (51)..(57) CDR2; DOMAIN (90)..(98) CDR3
For B1, the “Specificity of anti-IC antibody (CCPH immunocomplexes recognized)” value (“Specificity of anti-IC antibody” for short) is listed as “group-specific”.

B2: SA60A1: subgroup specific anti-IC antibody with MC-LR preferring specificity (antibody, V domains shown)
VH: EVQLLESGGGLVQPGGSLRLSCAASGFTFSPYYMHWVRQAPGKGLEWVSYITPYDGYTDYADSVKGRFTISRDNSKNTLYLQMNSLRAEDTAVYYCARYSYVGSVRTRVFDYWGQGTLVTVSS
VL: EIVLTQSPGTLSLSPGERATLSCRASQSVSSSNLAWYQQKPGQAPRLLIYGASSRATGVPDRFSGSGSGTDFTLTISRLEPEDFAVYYCQQSYSYPWTFGQGTKVEIKRT
modifications: Clone SA60A1; DOMAIN (31)..(35) CDR1; DOMAIN (50)..(66) CDR2; DOMAIN (99)..(112) CDR3; DOMAIN (24)..(35) CDR1; DOMAIN (51)..(57) CDR2; DOMAIN (90)..(98) CDR3
Take B2: the “Specificity of anti-IC antibody” value is listed as “MC-LR preferring specificity”.

B3: SA59G2: variant-specific anti-IC antibody, MC-LR (antibody, V domains shown)
VH: EVQLLESGGGLVQPGGSLRLSCAASGFTFSNYYMHWVRQAPGKGLEWVSYIDPVGGETYYADSVKGRFTISRDNSKNTLYLQMNSLRAEDTAVYYCARYYYWGYRAFDYWGQGTLVTVSS
VL: EIVLTQSPGTLSLSPGERATLSCRASQSVSSSALAWYQQKPGQAPRLLIYGASSRATGVPDRFSGSGSGTDFTLTISRLEPEDFAVYYCQQSSSLPWTFGQGTKVEIKRT
modifications: Clone SA59G2; DOMAIN (31)..(35) CDR1; DOMAIN (51)..(66) CDR2; DOMAIN (99)..(109) CDR3; DOMAIN (24)..(35) CDR1; DOMAIN (51)..(57) CDR2; DOMAIN (90)..(98) CDR3
Turning to B3, the “Specificity of anti-IC antibody” value is recorded as “recognize immunocomplexes comprising MC-LR”.

B4: SA51H4: MC-XR subgroup-specific anti-IC antibody (antibody, V domains shown)
VH: EVQLLESGGGLVQPGGSLRLSCAASGFTFSDYWMHWVRQAPGKGLEWVSEIWPYDGYTNYADSVKGRFTISRDNSKNTLYLQMNSLRAEDTAVYYCARDPGPEGVFDYWGQGTLVTVSS
VL: EIVLTQSPGTLSLSPGERATLSCRASQSVSSSNLAWYQQKPGQAPRLLIYGASSRATGVPDRFSGSGSGTDFTLTISRLEPEDFAVYYCQQSSSYPWTFGQGTKVEIKRT
modifications: Clone SA51H4; DOMAIN (31)..(35) CDR1; DOMAIN (50)..(66) CDR2; DOMAIN (99)..(108) CDR3; DOMAIN (24)..(35) CDR1; DOMAIN (51)..(57) CDR2; DOMAIN (90)..(98) CDR3
As to B4, the “Specificity of anti-IC antibody” value is “specific for a subgroup MC-XR”.

B5: SA42E10: MC subgroup-specific anti-IC binder (antibody, V domains shown)
VH: EVQLLESGGGLVQPGGSLRLSCAASGFTFSDYAMHWVRQAPGKGLEWVSSIIPYTGTTDYADSVKGRFTISRDNSKNTLYLQMNSLRAEDTAVYYCARTDDLIGHYDVYYYFDYWGQGTLVTVSS
VL: EIVLTQSPGTLSLSPGERATLSCRASQSVSSSYLAWYQQKPGQAPRLLIYGASSRATGVPDRFSGSGSGTDFTLTISRLEPEDFAVYYCQQSSSLPWTFGQGTKVEIKRT
modifications: Clone SA42E10; DOMAIN (31)..(35) CDR1; DOMAIN (50)..(66) CDR2; DOMAIN (99)..(114) CDR3; DOMAIN (24)..(35) CDR1; DOMAIN (51)..(57) CDR2; DOMAIN (90)..(98) CDR3
Turning to B5, the “Specificity of anti-IC antibody” value is reported as “MC subgroup-specific”.

B6: SA52B4: XR subgroup-specific anti-IC antibody (antibody, V domains shown)
VH: EVQLLESGGGLVQPGGSLRLSCAASGFTFSDYSMHWVRQAPGKGLEWVSEIWTNTGYTNYADSVKGRFTISRDNSKNTLYLQMNSLRAEDTAVYYCARESWEWFSIVFDYWGQGTLVTVSS
VL: EIVLTQSPGTLSLSPGERATLSCRASQSVSSSALAWYQQKPGQAPRLLIYGASSRATGVPDRFSGSGSGTDFTLTISRLEPEDFAVYYCQQYSSTPWTFGQGTKVEIKRT
modifications: Clone SA52B4; DISULFID (31)..(35) CDR1; DISULFID (50)..(66) CDR2; DISULFID (99)..(110) CDR3; DOMAIN (24)..(35) CDR1; DOMAIN (51)..(57) CDR2; DOMAIN (90)..(98) CDR3
On to B6, for which the “Specificity of anti-IC antibody” value was “specific for a subgroup XR”.

B7: SA41A5: MC-XR subgroup-specific anti-IC antibody (antibody, V domains shown)
VH: EVQLLESGGGLVQPGGSLRLSCAASGFTFSNYYMHWVRQAPGKGLEWVSEINYDGETDYADSVKGRFTISRDNSKNTLYLQMNSLRAEDTAVYYCARDGFWYGTAFDYWGQGTLVTVSS
VL: EIVLTQSPGTLSLSPGERATLSCRASQSVSSSALAWYQQKPGQAPRLLIYGASSRATGVPDRFSGSGSGTDFTLTISRLEPEDFAVYYCQQMHSTPWTFGQGTKVEIKRT
modifications: Clone SA41A5; DOMAIN (31)..(35) CDR1; DOMAIN (50)..(66) CDR2; DOMAIN (99)..(108) CDR3; DOMAIN (24)..(35) CDR1; DOMAIN (51)..(57) CDR2; DOMAIN (90)..(98) CDR3
With B7, the “Specificity of anti-IC antibody” value is “specific for a subgroup MC-XR”.

B8: SA57A3: subgroup specific anti-IC antibody with MC-LR preferring specificity (antibody, V domains shown)
VH: EVQLLESGGGLVQPGGSLRLSCAASGFTFSDYYMHWVRQAPGKGLEWVSYINTYDGNTDYADSVKGRFTISRDNSKNTLYLQMNSLRAEDTAVYYCARYYNPYTRRRVFDYWGQGTLVTVSS
VL: EIVLTQSPGTLSLSPGERATLSCRASQSVSSSNLAWYQQKPGQAPRLLIYGASSRATGVPDRFSGSGSGTDFTLTISRLEPEDFAVYYCQQSSSYPWTFGQGTKVEIKRT
modifications: Clone SA57A3; DOMAIN (31)..(35) CDR1; DOMAIN (50)..(66) CDR2; DOMAIN (99)..(111) CDR3; DOMAIN (24)..(35) CDR1; DOMAIN (51)..(57) CDR2; DOMAIN (90)..(98) CDR3
For the molecule B8, the “Specificity of anti-IC antibody” value is “MC-LR preferring specificity”.

B9: SA41F2: XR subgroup-specific anti-IC antibody (antibody, V domains shown)
VH: EVQLLESGGGLVQPGGSLRLSCAASGFTFSNYGMHWVRQAPGKGLEWVSEIDYVDGNTYYADSVKGRFTISRDNSKNTLYLQMNSLRAEDTAVYYCAREVYAHGIAAFDYWGQGTLVTVSS
VL: EIVLTQSPGTLSLSPGERATLSCRASQSVSSSALAWYQQKPGQAPRLLIYGASSRATGVPDRFSGSGSGTDFTLTISRLEPEDFAVYYCQQYSSTPWTFGQGTKVEIKRT
modifications: Clone SA41F2; DOMAIN (31)..(35) CDR1; DOMAIN (50)..(66) CDR2; DOMAIN (99)..(110) CDR3; DOMAIN (24)..(35) CDR1; DOMAIN (51)..(57) CDR2; DOMAIN (90)..(98) CDR3
Turning to B9, the “Specificity of anti-IC antibody” value is given as “specific for a subgroup XR”.

B10: SA56D5: subgroup specific anti-IC antibody with MC-LR preferring specificity (antibody, V domains shown)
VH: EVQLLESGGGLVQPGGSLRLSCAASGFTFSDYYMHWVRQAPGKGLEWVSYIDGNGGYTDYADSVKGRFTISRDNSKNTLYLQMNSLRAEDTAVYYCARYWFDSSYKHRYFDYWGQGTLVTVSS
VL: EIVLTQSPGTLSLSPGERATLSCRASQSVSSSNLAWYQQKPGQAPRLLIYGASSRATGVPDRFSGSGSGTDFTLTISRLEPEDFAVYYCQQSSSYPWTFGQGTKVEIKRT
modifications: Clone SA56D5; DOMAIN (31)..(35) CDR1; DOMAIN (50)..(66) CDR2; DOMAIN (99)..(112) CDR3; DOMAIN (24)..(35) CDR1; DOMAIN (51)..(57) CDR2; DOMAIN (90)..(98) CDR3
Take B10: the “Specificity of anti-IC antibody” value is reported as “MC-LR preferring specificity”.

B11: SA52C2: MC subgroup-specific anti-IC binder (antibody, V domains shown)
VH: EVQLLESGGGLVQPGGSLRLSCAASGFTFSSDVMHWVRQAPGKGLEWVSEIDPSDGTTNYADSVKGRFTISRDNSKNTLYLQMNSLRAEDTAVYYCARSYLDWPLDVWGQGTLVTVSS
VL: EIVLTQSPGTLSLSPGERATLSCRASQSVSSSNLAWYQQKPGQAPRLLIYGASSRATGVPDRFSGSGSGTDFTLTISRLEPEDFAVYYCQQMHSTPWTFGQGTKVEIKRT
modifications: Clone SA52C2; DOMAIN (31)..(35) CDR1; DOMAIN (50)..(66) CDR2; DOMAIN (99)..(107) CDR3; DOMAIN (24)..(35) CDR1; DOMAIN (51)..(57) CDR2; DOMAIN (90)..(98) CDR3
B11: the “Specificity of anti-IC antibody” value was “MC subgroup-specific”.

B12: SA33D5: XR subgroup-specific anti-IC antibody (antibody, V domains shown)
VH: EVQLLESGGGLVQPGGSLRLSCAASGFTFSSDVMHWVRQAPGKGLEWVSEIDPNDGSTRYADSVKGRFTISRDNSKNTLYLQMNSLRAEDTAVYYCAREYGAVSWSVVVFDYWGQGTLVTVSS
VL: EIVLTQSPGTLSLSPGERATLSCRASQSVSSSNLAWYQQKPGQAPRLLIYGASSRATGVPDRFSGSGSGTDFTLTISRLEPEDFAVYYCQQSSSYPWTFGQGTKVEIKRT
modifications: Clone SA33D5; DOMAIN (31)..(35) CDR1; DOMAIN (50)..(66) CDR2; DOMAIN (99)..(112) CDR3; DOMAIN (24)..(35) CDR1; DOMAIN (51)..(57) CDR2; DOMAIN (90)..(98) CDR3
B12: the “Specificity of anti-IC antibody” value is reported as “specific for a subgroup XR”.

The record behind these values is patent publication US10808024B2, “Antibodies against immunocomplexes comprising cyanobacterial cyclic peptide hepatotoxins” (priority 2015, dated 2020).
